Data on eight molecules can be found in patent US20030096741A1, “Enhanced mineral delivery” (priority 2000, published 2003).

The conditions of test [1]: 3P motif versus 2P motif; cited from earlier work.
Test [2] relates to bone specific gravity (femurs and tibias). In words: Bone specific gravity in growing rats fed a high sucrose diet. The test is classed as in vivo, Sprague-Dawley rats. The note with it: high sucrose diet for 5 weeks, 6.25 or 3.125 mmol/kg of diet, both groups. The source says: A high sucrose diet is associated with a decrease in bone specific gravity in growing rats (reflecting reduced calcium and phosphorous content). See J. Nutr. 128:1807-1810 (1998). This decrease in bone density is reversed or prevented by carbamoyl phosphate supplementation. Sprague-Dawley rats were fed a high sucrose diet for 5 weeks, supplemented with carbarnoyl phosphate at either 6.25 or 3.125 mmol/kg of diet. […] Thus, carbamoyl phosphate modifies the effect of a high sucrose diet on bone growth.

The conditions of test [3]: cited from earlier work.
[4] abbreviates: calcium binding, human β-CN variants by number of phosphorylated Ser residues, calculated from published binding studies, read-out: Average dissociation Constant.

Read-outs that look alike come from different tables or passages of the source. Square brackets hold non-standard residues; d marks the D form. Ends that are not written are not given here. pS = N[C@@H](COP(=O)(O)O)C(=O)O

For “3P variant: Reynolds (WO 98/40406) 3P variant having the sequence motif SerP-SerP-SerP-Glu-Glu (SEQ ID NO: 1) ([pS][pS][pS]EE)”, in test [1], the “calcium and phosphate binding strength relative to 2P synthetic homologues having the motif SerP-SerP-Glu-Glu” value is recorded as 2.5 times.

`NC(=O)OP(=O)(O)O` [carbamoyl phosphate]: in test [2], the “specific gravities of femurs and tibias versus control rats receiving standard lab chow” value is recorded as “not significantly different”; the “specific gravities of femurs and tibias versus rats on the same diet without carbamoyl phosphate” value is on record as “significantly higher”.

B1: 4P: Human β-CN variant with four SerP residues, all three Ser in the target sequence phosphorylated (protein, UniProt P05814 16-226, looked up)
Beta-casein: RETIESLSSSEESITEYKQKVEKVKHEDQQQGEDEHQDKIYPSFQPQPLIYPFVEPIPYGFLPQNILPLAQPAVVLPVPQPEIMEVPKAKDTVYTKGRVMPVLKSPTIPFFDPQIPKLTDLENLHLPLPLLQPLMQQVPQPIPQTLALPPQPLWSVPQPKVLPIPQQVVPYPQRAVPVQALLLNQELLLNPTHQIYPVTQPLAPVHNPISV
modifications: four phosphoserines
Regarding B1, in test [3] (setting [4]), the Kd is 810 µM.

B2: 5P: Human β-CN variant with five phosphorylated Ser residues (protein, UniProt P05814 16-226, looked up)
Beta-casein: B1 Beta-casein
modifications: five phosphoserines
notes: Human β-CN variant with five phosphorylated Ser residues
For B2, the Kd in test [3] (setting [4]) is 420 µM.

B3: 1P: Human β-CN variant with one phosphorylated Ser residue (protein, UniProt P05814 16-226, looked up)
Beta-casein: B1 Beta-casein
modifications: one phosphoserine
notes: Human β-CN variant with one phosphorylated Ser residue
Consider B3, for which, in test [3] (setting [4]), the Kd is 1170 µM.

B4: 2P: Human β-CN variant with two SerP residues, only two of three Ser in the target sequence phosphorylated (protein, UniProt P05814 16-226, looked up)
Beta-casein: B1 Beta-casein
modifications: two phosphoserines
In the case of B4, in test [3] (setting [4]), the Kd was 1210 µM.

B5: 3P: Human β-CN variant with three phosphorylated Ser residues (protein, UniProt P05814 16-226, looked up)
Beta-casein: B1 Beta-casein
modifications: three phosphoserines
notes: Human β-CN variant with three phosphorylated Ser residues
On to B5, for which the Kd in test [3] (setting [4]) was 860 µM.

B6: bovine β-CN: Bovine beta-casein (protein, UniProt P02666 16-224, looked up)
Beta-casein: RELEELNVPGEIVESLSSSEESITRINKKIEKFQSEEQQQTEDELQDKIHPFAQTQSLVYPFPGPIPNSLPQNIPPLTQTPVVVPPFLQPEVMGVSKVKEAMAPKHKEMPFPKYPVEPFTESQSLTLTDVENLHLPLPLLQSWMHQPHQPLPPTVMFPPQSVLSLSQSKVLPVPQKAVPYPQRDMPIQAFLLYQEPVLGPVRGPFPIIV
For B6, the Kd in test [3] (bovine β-CN, read-out: calcium dissociation constant) was 650 µM.
